One assay addresses T1, P7A-bP.
T1 chain: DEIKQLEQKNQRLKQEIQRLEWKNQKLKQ
Briefly: two-hybrid library CCNG1.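 Also: natural log of median RNA to DNA barcode read ratio; higher means stronger binding.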

The target in another assay is T2, P9A-bP.
T2 chain: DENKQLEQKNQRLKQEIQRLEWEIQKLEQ
The experiment in a line: two-hybrid library CCNG1.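 Also: natural log of median RNA to DNA barcode read ratio; higher means stronger binding.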

For a further assay, the target named is T3, P5A-bP.
T3 chain: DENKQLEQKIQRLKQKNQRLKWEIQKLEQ
The experiment in a line: two-hybrid library CCNG1.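 Also: natural log of median RNA to DNA barcode read ratio; higher means stronger binding.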

In the next assay the target is T4, P6A-bP.
T4 chain: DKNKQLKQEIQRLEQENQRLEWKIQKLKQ
The experiment in a line: two-hybrid library CCNG1.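 Also: natural log of median RNA to DNA barcode read ratio; higher means stronger binding.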

The target of the next assay is T5, P8A-bP.
T5 chain: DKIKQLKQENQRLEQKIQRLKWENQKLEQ
The experiment in a line: two-hybrid library CCNG1.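 Also: natural log of median RNA to DNA barcode read ratio; higher means stronger binding.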

Another assay addresses T6, O14-bA.
T6 chain: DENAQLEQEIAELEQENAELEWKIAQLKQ
Briefly: two-hybrid library CCNG1.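 Also: natural log of median RNA to DNA barcode read ratio; higher means stronger binding.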

Another assay has as its target T7, 4H575-bA.
T7 chain: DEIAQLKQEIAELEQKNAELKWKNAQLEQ
Briefly: two-hybrid library CCNG1.

In the next assay the target is T8, 4H780-bA.
T8 chain: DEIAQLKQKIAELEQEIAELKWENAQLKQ
Briefly: two-hybrid library CCNG1.

In a further assay the target is T9, 4H855-bA.
T9 chain: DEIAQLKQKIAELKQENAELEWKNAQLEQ
The experiment in a line: two-hybrid library CCNG1.

The target of another assay is T10, 4H457-bA.
T10 chain: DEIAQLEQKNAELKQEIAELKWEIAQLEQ
The experiment in a line: two-hybrid library CCNG1.

The target of a further assay is T11, 4H683-bA.
T11 chain: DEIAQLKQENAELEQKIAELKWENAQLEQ
Briefly: two-hybrid library CCNG1.

A further assay addresses T12, 4H968-bA.
T12 chain: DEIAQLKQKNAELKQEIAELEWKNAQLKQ
Briefly: two-hybrid library CCNG1.

The target in another assay is T13, 4H797-bA.
T13 chain: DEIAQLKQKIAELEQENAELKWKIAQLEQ
The experiment in a line: two-hybrid library CCNG1.

The next assay concerns the target T14, 4H754-bA.
T14 chain: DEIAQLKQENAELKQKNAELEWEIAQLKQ
Briefly: two-hybrid library CCNG1.

A further assay concerns the target T15, 4H953-bA.
T15 chain: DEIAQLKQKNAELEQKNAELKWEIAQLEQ
The experiment in a line: two-hybrid library CCNG1.

In another assay the target is T16, 4H918-bA.
T16 chain: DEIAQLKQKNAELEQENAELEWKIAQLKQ
The experiment in a line: two-hybrid library CCNG1.

For the next assay, the target named is T17, P10-AA.
T17 chain: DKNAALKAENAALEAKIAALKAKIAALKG
The experiment in a line: two-hybrid library CCmax. The conditions noted are these: mean of both orientations.

A further assay concerns the target T18, O4-AA.
T18 chain: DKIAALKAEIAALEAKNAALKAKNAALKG
Briefly: two-hybrid library CCmax. The note with it: mean of both orientations.

Another assay addresses T19, O14-AA.
T19 chain: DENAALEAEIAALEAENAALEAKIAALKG
Briefly: two-hybrid library CCmax.

A further assay deals with T20, O7-AA.
T20 chain: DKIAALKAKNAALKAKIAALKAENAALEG
Briefly: two-hybrid library CCmax. The conditions noted are these: mean of both orientations.

The next assay addresses T21, O8-AA.
T21 chain: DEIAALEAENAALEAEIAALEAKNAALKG
Briefly: two-hybrid library CCmax. The conditions noted are these: mean of both orientations.

In another assay the target is T22, O2-AA.
T22 chain: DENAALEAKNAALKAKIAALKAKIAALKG
The experiment in a line: two-hybrid library CCmax.

The next assay concerns the target T23, O3-AA.
T23 chain: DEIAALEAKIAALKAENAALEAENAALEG
The experiment in a line: two-hybrid library CCmax. The note with it: mean of both orientations.

Another assay has as its target T24, O6-AA.
T24 chain: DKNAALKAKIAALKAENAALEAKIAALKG
Briefly: two-hybrid library CCmax. The conditions noted are these: mean of both orientations.

Another assay addresses T25, O5-AA.
T25 chain: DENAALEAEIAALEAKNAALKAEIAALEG
The experiment in a line: two-hybrid library CCmax. The conditions noted are these: mean of both orientations.

The target in the next assay is T26, P9-AA.
T26 chain: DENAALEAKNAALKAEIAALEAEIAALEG
Briefly: two-hybrid library CCmax. The note with it: mean of both orientations.

Another assay addresses T27, O13-AA.
T27 chain: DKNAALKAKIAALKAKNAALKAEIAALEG
The experiment in a line: two-hybrid library CCmax. The note with it: mean of both orientations.

The target of the next assay is T28, O11-AA.
T28 chain: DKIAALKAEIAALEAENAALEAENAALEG
The experiment in a line: two-hybrid library CCmax.

Like-named read-outs stand apart in the source and are kept apart here.

DENKQLEQKIQRLKQKNQRLKWEIQKLEQ [P5A-bP]: the interaction score with P7A-bP is -1.06; in the assay with P9A-bP, -1.44; in the assay with P5A-bP it was -1.57; with P6A-bP it was 1.7; with P8A-bP, -0.516.

Regarding DEIAQLEQKNAELKQEIAELKWEIAQLEQ [4H457-bA], the interaction score in the assay with O14-bA is -0.0398; with 4H575-bA, -1.69; with 4H780-bA, -1.18; with 4H855-bA it was -1.04; with 4H457-bA, -0.968; with 4H683-bA, 0.308. The interaction score with 4H968-bA was 0.0968; with 4H797-bA, -1.25; in the assay with 4H754-bA, -1.54; with 4H953-bA it was -0.948; with 4H918-bA it was -0.845.

For the molecule DENAALEAEIAALEAENAALEAKIAALKG [O14-AA], the interaction score in the assay with P10-AA was -0.458; with O4-AA it was -0.13; with O14-AA, -1.46; with O7-AA, 1.84; with O8-AA, -0.992; with O2-AA (mean of both orientations) it was 0.393. Besides, the interaction score was -1.47 with O3-AA, 1.44 with O6-AA, 1.3 in the assay with O5-AA and -1.61 with P9-AA.

Turning to DENAALEAKNAALKAKIAALKAKIAALKG [O2-AA], the interaction score with P10-AA is 1.33; with O4-AA, -1.55; in the assay with O7-AA, -1.5; in the assay with O8-AA it was 0.633; with O2-AA, -1.61; in the assay with O3-AA it was -1.26. In addition, the interaction score with O6-AA was -1.77; in the assay with O5-AA it was -1.37; with P9-AA, 0.934.

Turning to DKIAALKAEIAALEAENAALEAENAALEG [O11-AA], the interaction score is -0.539 with P10-AA; 1.9 with O4-AA; -1.08 with O13-AA; -0.752 with O11-AA; -1.2 in the assay with O14-AA (mean of both orientations); -0.673 with O7-AA. For the same molecule, the interaction score with O8-AA is -1.67; in the assay with O2-AA (mean of both orientations), -0.959; with O3-AA, -0.899; in the assay with O6-AA, -0.7; with O5-AA, -1.47; in the assay with P9-AA, -1.22.

Values taken from publication PMC10397247.
